Test results published in PMC8920847.

Molecular target: His-tagged recombinant AjBNIP3 (rAjBNIP3) (Apostichopus japonicus)
Experiment: MST

Kd: 2820 nM
Substance: Recombinant His-AjLC3 (natural protein)
